Source: publication PMC7283272, “Identifying the role of PrimPol in TDF-induced toxicity and implications of its loss of function mutation in an HIV+ patient”

Target: T1, PrimPol WT (UniProt Q96LW4 1-560)
T1 sequence: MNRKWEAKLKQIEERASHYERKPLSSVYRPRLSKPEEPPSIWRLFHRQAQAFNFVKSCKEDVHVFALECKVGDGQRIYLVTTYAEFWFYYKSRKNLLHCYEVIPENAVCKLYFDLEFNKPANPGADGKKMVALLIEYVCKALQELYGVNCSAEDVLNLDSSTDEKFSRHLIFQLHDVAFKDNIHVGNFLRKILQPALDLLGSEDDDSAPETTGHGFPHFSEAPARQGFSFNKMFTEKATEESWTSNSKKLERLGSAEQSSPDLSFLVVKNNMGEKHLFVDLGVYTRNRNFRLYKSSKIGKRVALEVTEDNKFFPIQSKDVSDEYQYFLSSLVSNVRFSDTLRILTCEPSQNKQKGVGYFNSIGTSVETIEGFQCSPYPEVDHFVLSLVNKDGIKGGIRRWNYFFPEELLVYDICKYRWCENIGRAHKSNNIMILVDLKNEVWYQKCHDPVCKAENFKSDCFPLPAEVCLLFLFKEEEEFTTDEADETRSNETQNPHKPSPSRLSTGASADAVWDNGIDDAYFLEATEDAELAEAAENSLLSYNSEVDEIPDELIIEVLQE
Assay: thermal shift (DSF, stabilization by DNA); 10 uM Mn2+; EMSA: Mn2+ present, buffer not given in the material. DSF: 5 uM protein, 5 uM dsDNA, 50 mM Tris pH 7.5, 300 mM NaCl, 0.5 uM TCEP, 5% glycerol, 10 uM MgCl2 or MnCl2, 4-95 C ramp
Conditions: protein: recombinant; tags: N-terminal His-TEV (tag cleaved); 20 bp, template 5' overhang 25 nt

B1: D20A/D45 primer/template (dsDNA)
DNA 1: GCCTCGCAGCCGTCCAACCA
DNA 2: GGACGGCATTGGATCGAGGTTGAGTTGGTTGGACGGCTGCGAGGC
  binding result: binds
